# Results reported in publication PMC11429718.
# Experiments:
# [1] = biological target: 329 SOSIP.v8.2 Env trimer (HIV-1 clade C (isolate 329.14.B1)); test: negative-stain electron microscopy
# [2] = biological target: 329 SOSIP.v8.2 Env trimer (HIV-1 clade C (isolate 329.14.B1)); test: native gel or EMSA
substance,measurement,setting,value
329 SOSIP.v8.2 Env trimer (complex),stoichiometry N,[1],3
same,stoichiometry N,[2],3
